Publication PMC8891189, “Hydroxycinnamoyltransferase and CYP98 in phenolic metabolism in the rosmarinic acid-producing hornwort Anthoceros agrestis” (Planta, 2022)

B1: AaHCT6 (Anthoceros agrestis) (protein)
chain: MKVSIKKETMVPPAEETPQVALWASNVDLIIPQIHTSSVYFYRPSGSPDFFSGDVLRDALAKALVPFYPMAGRLARDQDGRIQINCNAAGVLLVEAEADVSIDDLGGFAPHPVLQQLVPTVVYTKDITAFPLLVLQVTRFKCGGASLGVGMEHHIADGTSGIHFINTWSDVARGEGVKVLPFVDRTLLRARSPPTPQFEHVEYQTPFTLQPRFRPEEGSEKVETVVESFTFSREQLGKLKAMVADPGANLAYSSYVALSAHIWRCATRARGLSGDQPSKLFVATDGRARLRPPLPRGYFGNVIFTCTPVAEAEELVAKPLIRTAARIQEAVLKMGDEYLRSALDYLELLPDMSVCIRGAAHFGNPNLCITSWSGLPVYDCDFGWGRAIHMGPCQIGFEGLCFVLGSATKDGSLGLALRLRADHMADFRKLVNDI
B2: AaCYP98 (CYP98A147; coAaCYP98 + CbCPR) (Anthoceros agrestis) (protein)
chain: MAELVVRAVLALIAVAVAAGFLFYRARWSRYKLPPGPKPRLFVGNLLDVTAVRFKCFEQWAKVYGPVMSVWMGATLNVVVSSAEGAKEVLKDKDQSLAARARSRAAAKFSRDGQDLIWADYGPHYVKVRKVCNVELFTPKRLEALRPIRQDEVSAMVHKIHRDAPKGPVNPKKYLSAMAFNNITRLAFGKRFVDDEGKIDSQGVEFKEVIGQGMKLGASLKISEHIPSIRWMFPLQNEEFAKHGARRDTLTRTIMKEHAALRETLGPQSHFVDALLGLQKQYDLSETTIIGLLWDMVTAGMDTVAITVEWALAELIRNPEVQRKAQEELDAVVGDETVLTEAHFSKLPYLTALTKESLRLHPPTPLMLPHKCTEDVKIQGYDIPKGTVVHCNIYVIARDPAVWKEPLAFRPERFLEQDVDIKGHDFRLLPFGAGRRVCPGAQLGLNMVQLMIGRLLHQFSWSPPEGVRAEDISLEERSGIVTYMAKSLEAVATPRLPQALYARNV
notes: with NADPH--cytochrome P450 reductase (Coleus blumei)

Experiments:
[1] = substrate: O=C(O)C1=C[C@@H](O)[C@@H](O)[C@H](O)C1; test: cells, lysate or membranes; settings: co-substrate p-coumaroyl-CoA, pH 7.0, 30 °C, crude extract
[2] = substrate: CC(C)(COP(=O)(O)OP(=O)(O)OC[C@H]1O[C@@H](n2cnc3c(N)ncnc32)[C@H](O)[C@@H]1OP(=O)(O)O)[C@@H](O)C(=O)NCCC(=O)NCCSC(=O)/C=C/c1ccc(O)c(O)c1; test: HPLC product assay, Michaelis-Menten fit; format: biochemical, Anthoceros agrestis; settings: co-substrate shikimic acid, pH 7.0, 30 °C, crude extract, pH 7.0
[3] = substrate: CC(C)(COP(=O)(O)OP(=O)(O)OC[C@H]1O[C@@H](n2cnc3c(N)ncnc32)[C@H](O)[C@@H]1OP(=O)(O)O)[C@@H](O)C(=O)NCCC(=O)NCCSC(=O)/C=C/c1ccc(O)cc1; test: HPLC product assay, Michaelis-Menten fit; format: biochemical, Anthoceros agrestis; settings: co-substrate shikimic acid, pH 7.0, 30 °C, crude extract, pH 7.0
[4] = substrate: Nc1c(O)cccc1C(=O)O; test: HPLC product assay, Michaelis-Menten fit; format: biochemical, Anthoceros agrestis; settings: co-substrate p-coumaroyl-CoA, pH 9.0, 30 °C, crude extract, amide formed, pH 9.0
[5] = substrate: O=C(O)c1cccc(O)c1O; test: HPLC product assay, Michaelis-Menten fit; format: biochemical, Anthoceros agrestis; settings: co-substrate p-coumaroyl-CoA, 30 °C, crude extract, ester formed
[6] = substrate: O=C(/C=C/c1ccc(O)cc1)NCCc1ccc(O)cc1; test: HPLC product assay, Michaelis-Menten fit; format: biochemical, Anthoceros agrestis; settings: co-substrate NADPH, with Coleus blumei CPR, pH 7.0, 30 °C, crude extract
[7] = substrate: O=C(/C=C/c1ccc(O)cc1)Nc1c(O)cccc1C(=O)O; test: HPLC product assay, Michaelis-Menten fit; format: biochemical, Anthoceros agrestis; settings: co-substrate NADPH, with Coleus blumei CPR, pH 7.0, 30 °C, crude extract
[8] = substrate: O=C(/C=C/c1ccc(O)cc1)Nc1ccccc1C(=O)O; test: HPLC product assay, Michaelis-Menten fit; format: biochemical, Anthoceros agrestis; settings: co-substrate NADPH, with Coleus blumei CPR, pH 7.0, 30 °C, crude extract

Protein | Km [1] | Km [2] | Km [3] | Km [4] | Km [5] | Km [6] | Km [7] | Km [8]
B1 | 24.6 ± 10.4 µM | 19.2 ± 16.2 µM | 14.4 ± 1.4 µM | 153.1 ± 33.8 µM | 1025.9 ± 59.7 µM |  |  | 
B2 |  |  |  |  |  | 36.3 ± 3.6 µM | 9.3 ± 0.7 µM | 6.4 ± 0.8 µM
